# Values quoted from earlier work, collected in article PMC11544004.
# Key:
# CD86 (Homo sapiens) = CD86 (Homo sapiens) (UniProt P42081)
# CD80 (Homo sapiens) = CD80 (Homo sapiens) (UniProt P33681)
# [1] = target: PVR (CD155) (Homo sapiens) (UniProt P15151)
# Chain of UniProt P15151 (P15151 21-343): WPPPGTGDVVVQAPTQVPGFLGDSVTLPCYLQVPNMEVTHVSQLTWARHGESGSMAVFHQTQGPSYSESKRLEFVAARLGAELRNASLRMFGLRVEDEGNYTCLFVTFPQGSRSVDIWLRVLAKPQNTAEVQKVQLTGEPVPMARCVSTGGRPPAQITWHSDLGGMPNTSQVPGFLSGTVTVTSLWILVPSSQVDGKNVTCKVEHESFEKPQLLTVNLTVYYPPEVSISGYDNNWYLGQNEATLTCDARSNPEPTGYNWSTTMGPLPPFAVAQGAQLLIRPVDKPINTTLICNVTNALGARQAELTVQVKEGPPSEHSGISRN
# Chain of UniProt P33681 (P33681 35-242): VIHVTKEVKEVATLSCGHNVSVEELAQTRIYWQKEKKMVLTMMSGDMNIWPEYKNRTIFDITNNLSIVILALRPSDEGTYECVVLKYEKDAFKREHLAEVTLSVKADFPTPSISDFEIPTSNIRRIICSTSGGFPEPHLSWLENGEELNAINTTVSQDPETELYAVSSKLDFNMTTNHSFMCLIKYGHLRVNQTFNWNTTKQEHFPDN
# Chain of UniProt P42081 (P42081 24-247): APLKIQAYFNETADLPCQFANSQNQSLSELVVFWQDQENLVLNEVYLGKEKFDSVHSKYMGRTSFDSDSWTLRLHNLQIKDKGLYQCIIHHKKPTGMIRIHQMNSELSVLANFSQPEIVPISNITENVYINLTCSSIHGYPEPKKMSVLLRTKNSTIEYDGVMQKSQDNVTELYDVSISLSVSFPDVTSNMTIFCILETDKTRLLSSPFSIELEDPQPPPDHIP
Substance,Kd (CD86 (Homo sapiens)) [µM],Kd (CD80 (Homo sapiens)) [µM],Kd [1] [µM]
CD28 (from UniProt P10747),20,4,
TIGIT (from UniProt Q495A1),,,0.002
